Laboratory results as given in publication doi:10.1101/2024.05.21.594841 (bioRxiv, 2024).
Read-outs that look alike come from different tables or passages of the source.

Key:
Assay in all cases: split reporter
Mpd1p = molecular target: T1, Mpd1p (S. cerevisiae, UniProt Q12404 22-318)
T1 sequence: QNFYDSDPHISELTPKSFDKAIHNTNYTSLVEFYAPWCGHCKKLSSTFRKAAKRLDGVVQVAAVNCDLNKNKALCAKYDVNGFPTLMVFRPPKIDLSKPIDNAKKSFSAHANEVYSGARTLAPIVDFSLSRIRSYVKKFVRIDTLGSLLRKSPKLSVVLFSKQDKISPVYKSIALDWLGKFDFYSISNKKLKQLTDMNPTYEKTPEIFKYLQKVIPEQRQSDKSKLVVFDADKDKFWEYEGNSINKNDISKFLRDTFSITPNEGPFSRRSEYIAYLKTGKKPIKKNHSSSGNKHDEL

Pdi1p = molecular target: T2, Pdi1p (S. cerevisiae, UniProt P17967 29-522)
T2 sequence: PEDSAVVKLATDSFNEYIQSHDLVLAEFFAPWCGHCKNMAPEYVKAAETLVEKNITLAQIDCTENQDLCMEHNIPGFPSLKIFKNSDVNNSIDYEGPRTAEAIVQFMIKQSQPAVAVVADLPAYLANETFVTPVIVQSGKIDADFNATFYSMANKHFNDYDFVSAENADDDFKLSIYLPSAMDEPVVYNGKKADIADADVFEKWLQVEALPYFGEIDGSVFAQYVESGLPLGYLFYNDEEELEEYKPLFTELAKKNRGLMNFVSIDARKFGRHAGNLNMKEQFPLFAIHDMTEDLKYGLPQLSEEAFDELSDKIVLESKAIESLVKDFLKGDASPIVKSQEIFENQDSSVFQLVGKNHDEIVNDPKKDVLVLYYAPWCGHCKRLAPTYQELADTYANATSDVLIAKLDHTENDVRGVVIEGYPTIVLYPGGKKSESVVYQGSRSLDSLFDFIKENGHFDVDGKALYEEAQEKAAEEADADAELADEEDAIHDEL

Yos9p [1] = molecular target: T3, Yos9p (S. cerevisiae, UniProt Q99220 22-542)
T3 sequence: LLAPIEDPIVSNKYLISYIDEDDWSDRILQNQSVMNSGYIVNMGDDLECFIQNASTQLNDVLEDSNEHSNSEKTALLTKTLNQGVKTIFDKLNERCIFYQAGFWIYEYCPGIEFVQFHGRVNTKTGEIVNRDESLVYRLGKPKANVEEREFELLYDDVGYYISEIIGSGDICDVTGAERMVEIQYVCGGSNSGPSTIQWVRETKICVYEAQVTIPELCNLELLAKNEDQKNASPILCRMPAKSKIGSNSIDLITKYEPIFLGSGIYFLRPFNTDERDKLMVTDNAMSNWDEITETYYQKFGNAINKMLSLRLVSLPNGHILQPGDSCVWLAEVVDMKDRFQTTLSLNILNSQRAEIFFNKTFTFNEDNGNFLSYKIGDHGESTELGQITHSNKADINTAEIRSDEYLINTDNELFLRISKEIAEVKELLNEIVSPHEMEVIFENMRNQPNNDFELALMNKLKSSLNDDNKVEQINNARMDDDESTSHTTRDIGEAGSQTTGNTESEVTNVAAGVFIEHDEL

Cpr5p [2] = molecular target: T4, Cpr5p (S. cerevisiae, UniProt P35176 23-225)
T4 sequence (P35176 23-225): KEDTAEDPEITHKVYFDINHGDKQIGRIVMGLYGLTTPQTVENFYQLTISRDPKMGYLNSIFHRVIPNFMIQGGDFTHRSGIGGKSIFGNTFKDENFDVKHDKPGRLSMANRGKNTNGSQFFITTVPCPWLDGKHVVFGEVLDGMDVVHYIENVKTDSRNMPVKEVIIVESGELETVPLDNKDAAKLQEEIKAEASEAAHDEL

Yos9p [3] = molecular target: T3, Yos9p; remark: listed apart in the source
Cpr5p [4] = molecular target: T4, Cpr5p; remark: listed apart in the source

B1: Kre5p (natural protein)
chain: WTYSLRYGIPESAQVWSILVHLLGDVDNQLLTNLYPLVTGLDDEIDIQENLVALTSNVLRERYDKEDVADLLELYASLYPMGMIQHDISSNAEQDDANSSYFVLNGNRYEKPDDVFYLKSKDLTIQQKVPDVDVIQPYDVVIGTNSEAPILILYGCPTVIDSDFEEFNRNLFMEAMNGEGKFRFIWRSTCSLDGKSVEYPLTHPLEITLQNGSRMSSIPQLKKILYTVPKEILVGADNDDQLHDLEPEELRELDLRVTSLISEFYQYKKDITATLNFTKSIVNNFPLISKQLIKVSSVNKDIITSNEELNSKGFDYNMLGLYINGQNWKITSLTPYNLLTALKTEYQSLLKITNLLQELEPSKCILDSKFLLNKFSQFSLGKLQNLQPIKMDLHTIPGFSESVIYFNDIESDPQYDELVNSVQAFFDKSKFGELPEIKQNWSEIIFVIDFARLEDSEVKEALGGLVRAVNVVSQGYPQRVGLLPFSSDSDKSVVNKIYELKNSTDNLTELKSFLETMLLADGLSANAKHSKHIPVPDVFHLLDELQIDETSIIINGEIYPFRKNAWNYLIAKVIKKDTEFIRKELSNSSPKNKQISVRDLLHYKSANLRHNKYTPNYFADSVYSSVNNTALESVCSERIGYYTKNEEYNLLHTITLVDDFGSIHALKRLRNLLHTSFVGVRIRIIHVGDISDIWYQLRGSLSQKDPIGSINTFIDALKLKKVKSHTYKKSGLNQLGLHKWLPDIPLFELQKGSFIALNGRFIHLDQNEVPETEHFEAIIKREALRTIDSVFALDLLFPGFSQEIINPDLIEMISSILTRLFYQGTHIYNNGIDYTTESSLPRMDLSEFFRPNNLTMFEDGKSASIDLLLILDPLEERTQMILSLVEQFRPLKFVNIQVILMPTLELNIVPIRRIYVDDADIVKSITSEDSRSDPEVDIEMDVPNSFIVDNNYRIKKLLIELHSFSSKTVLSTGNIDGMGGVCLALVDSAGNIIDKTTTMKTFGYGQFHTDKFLKGCYIKSCDSRYTVQSFSTDGHPDFIPSDSLDILSYNPQKIAVKISEEPTHEEEYEEGRNNDTIINIFTILESGPDEEERYMQMILSILSKCPETQKVNFFILDQPFISDTLRKSCEYINSSDEMRGNVIFLNYEWPQWLRPQRFSSRRRDVSRFLFLDVLLPQNISKVLYMSPTEVPLDPFDIFQFQGLKRAPLGLFRMSGDGYWKEGYWEKMLRENNLEFYSTEPAFLVNLERFRELDAGDKYRIHYQRISTDAMSLVNIGQDLVNNLQLEVPIRFLKGSYKKKLVINDECVSEWKKKINKFASSPGDEDVPGESVSSKYQDSDNAAPLHDEL
B1 was tested, and the normalized interacting score (Mpd1p) was 21%, the normalized interacting score (Pdi1p) was 23% and the normalized interacting score (Yos9p [1]) was 64%. It also gave a normalized interacting score (Cpr5p [2]) of 59%, a normalized interacting score (Yos9p [3]) of 16% and a normalized interacting score (Cpr5p [4]) of 22%.
